We go through four proteins from PMC7133768.

Holding throughout (assay): oxygen consumption assay
Common to all, as to assay type: biochemical, Chloracidobacterium thermophilum

Substrate in data set [1]: N[C@@H](CS)C(=O)O
Particulars: co-substrate hercynine.

Substrate in data set [2]: C[N+](C)(C)[C@@H](Cc1cnc[nH]1)C(=O)[O-]
The note with it: co-substrate L-Cys.

Substrate in data set [3]: N[C@@H](CCC(=O)N[C@@H](CS)C(=O)O)C(=O)O
Particulars: co-substrate hercynine.

Residue numbers refer to the chain shown, from its start. Names may count otherwise.

B1: EgtBCth (Cabther_A1318) (Chloracidobacterium thermophilum B; A420Y/D52L) (protein)
chain: EAARSHPEPIQSGEVSDRKAWQRHYRAVRAVSEAICQPLETEDYVVQPMPLVSPPKWHLGHTSWFFETFILKSGLADYRPFHPRYDYIFNSYYEAVGARHPRPQRGLLTRPTVSEVYAYRAHVDAAVERFIAHSDTRTWAALQPILELGLHHEQQHQELLLTDIKAILATNPLDPVYRPQPQPLPSPVEQLSPTGDWHIVEGGRYAIGHAGRGFAFDNEGPRHDVLLRPCRIAARPVTNGEFLAFMADGGYRRPELWLSDGWAAVTARGWEAPLYWRQAADGTWETLTLHGVQPVAPYEPVCHISFYEADAYARWAGKRLPTEAEWEVVAARLPVTGNFYESGVLHPRPVSVSAAFYGDVWVWTASPYVGYPGFRPVSGALGEYNGKFMCNQMVLRGGSCATSLTHIRSTYRNFFPPDYRWQFTGVRLAEDMS
With B1, in “oxygen consumption assay [1]”, the Km amounted to 48.7 ± 3.5 µM, the kcat worked out at 0.545 ± 0.005 s⁻¹ and the kcat/Km was 11200 ± 667 M⁻¹ s⁻¹. Further, in the data set “oxygen consumption assay [2]”, the Michaelis-Menten constant (Km) was 23.3 ± 1.2 µM, the kcat was found to be 0.545 ± 0.005 s⁻¹ and the specificity constant (kcat/Km) amounted to 23300 ± 1170 M⁻¹ s⁻¹.

B2: EgtBCth (Cabther_A1318) (Chloracidobacterium thermophilum B; D52L) (protein)
chain: B1 chain with Y419A
Turning to B2, the Km in the data set “oxygen consumption assay [1]” amounted to 47.3 ± 2.4 µM; in the data set “oxygen consumption assay [2]”, 13.2 ± 1.3 µM.

B3: EgtBCth (Cabther_A1318) (Chloracidobacterium thermophilum B) (protein)
chain: B1 chain with L51D, Y419A
On to B3, for which the values for the Michaelis-Menten constant (Km) in the data set “oxygen consumption assay [1]” and in “oxygen consumption assay [2]” (Fe(II) enzyme) were 205 ± 18 µM and 87.7 ± 7.6 µM, respectively. Moreover, the kcat/Km amounted to 2170 ± 167 M⁻¹ s⁻¹ in “oxygen consumption assay [1]” and 50 ± 8.33 M⁻¹ s⁻¹ in “oxygen consumption assay [3]”.

B4: EgtBCth (Cabther_A1318) (Chloracidobacterium thermophilum B; A420Y) (protein)
chain: B1 chain with L51D
As to B4, in “oxygen consumption assay [1]”, the Michaelis constant (Km) is 28.1 ± 1.8 µM and the kcat/Km was determined as 16300 ± 1000 M⁻¹ s⁻¹. In the data set “oxygen consumption assay [2]”, the Michaelis constant (Km) came to 39.2 ± 1.6 µM and the catalytic efficiency (kcat/Km) is 11700 ± 500 M⁻¹ s⁻¹.
